# Measured values reported in US11351270B2, “Junctophilin-2 fragments and uses therefor” (University of Iowa Research Foundation, priority 2016, dated 2022).
# B1: JP2NT: shorter form of Junctophilin-2 including the first 565 amino acids of N-terminus of JP2 (protein, UniProt Q9BR39 1-565, looked up, fragment)
# chain: MSGGRFDFDDGGAYCGGWEGGKAHGHGLCTGPKGQGEYSGSWNFGFEVAGVYTWPSGNTFEGYWSQGKRHGLGIETKGRWLYKGEWTHGFKGRYGIRQSSSSGAKYEGTWNNGLQDGYGTETYADGGTYQGQFTNGMRHGYGVRQSVPYGMAVVVRSPLRTSLSSLRSEHSNGTVAPDSPASPASDGPALPSPAIPRGGFALSLLANAEAAARAPKGGGLFQRGALLGKLRRAESRTSVGSQRSRVSFLKSDLSSGASDAASTASLGEAAEGADEAAPFEADIDATTTETYMGEWKNDKRSGFGVSERSSGLRYEGEWLDNLRHGYGCTTLPDGHREEGKYRHNVLVKDTKRRMLQLKSNKVRQKVEHSVEGAQRAAAIARQKAEIAASRTSHAKAKAEAAEQAALAANQESNIARTLARELAPDFYQPGPEYQKRRLLQEILENSESLLEPPDRGAGAAGLPQPPRESPQLHERETPRPEGGSPSPAGTPPQPKRPRPGVSKDGLLSPGAWNGEPSGEGSRSVTPSEGAGRRSPARPATERMAIEALQAPPAPSREPEVALYQG
# modifications: GST or adenoviral forms
# notes: shorter form of Junctophilin-2 including the first 565 amino acids of N-terminus of JP2
# Columns and labels:
# [1] = tested on: promoters of Myc, KLF6, TGFβR1 and NFKBIA; experiment: Promoter luciferase reporter assay; assay type: cell-based; details: co-expression; vs empty vector control
# Procedure: Firefly and Renilla reporter plasmids and JP2NT variants were co-transfected into HEK293 cells. The protein of the cells was harvested 48 hours after transfection. Promega dual luciferase system was used to evaluate the luciferase activity.
# To further test whether JP2NT regulates transcription of these genes, luciferase reporters controlled by promoters of Myc, KLF6, TGFβR1 and NFKBIA were constructed.
# JP2-KD cardiomyocytes = experiment: Confocal Ca2+ imaging in JP2-KD cardiomyocytes after adenoviral expression; assay type: cell-based, mouse; details: 1-Hz field stimulation
# Text: Specifically, conditional shJP2 mice (provided by Dr. Wehrens) (van Oort et al., 2011) were crossed with mice carrying the cardiac-specific α-myosin heavy chain promoter upstream of Cre (% MHC-Cre, also FVB-Tg(Myh6-cre)2182Mds/J, The Jackson Laboratory). The shJP2 mice were maintained on a C57BL/6 background for more than 10 generations. The αMHC-Cre mice were maintained on an FVB background. PCR was used to genotype the offspring. The near complete depletion of JP2 protein in JP2-KD (αMHC-Cre X shJP2) hearts has been reported recently (Chen et al., 2013). JP2-KD mice were sacrificed at 2 months of age for isolation and culture of ventricular cardiomyocytes as described below.
# Genecarrior-1 (Epoch Lab) was used to transfect plasmids into HEK293T cells. Isolation and culture of cardiomyocytes were performed as described previously (Guo et al., 2012). […] Ca^2+ Imaging experiments were performed 40 hours after adenoviral infection.
# Cells were loaded with Rhod-2AM at 37° C. for 20 minutes, followed by washing with Tyrode's solution at room temperature for 15 minutes before Ca^2+ imaging. Confocal images were acquired using a ×63, 1.3 numerical aperture oil immersion objective mounted on a Zeiss LSM 510 confocal microscope. Confocal line scanning was used to record Ca^2+ signals. Steady-state Ca^2+ transients were recorded in Tyrode's solution containing 1.8 mM Ca^2+ under field stimulation of 1 Hz. At least five steady-state transients for each cell were analyzed and averaged to represent Ca^2+ signals of the cell. Ca^2+ imaging data were analyzed by using a home-complied software, CaTeasy, which is coded in MATLAB 2013a (Mathworks). Briefly, the program normalizes Ca^2+ transient images on a column-by-column basis (512 columns/image). The characteristic parameters of normalized transients were detected automatically. The firing time of every scanning pixel was detected column by column on the basis of the maximum local variability of pixel intensity. The profile of the point-to-point firing time was indicated by a red line overlapping on the Ca^2+ image. Index of desynchronization, defined by the mean absolute deviation of firing time of each scanning pixel (with every 8 pixels binned), was used to evaluate the dyssynchrony of Ca^2+ transients. This automated software for calcium transient analysis is available upon request.
# [2] = tested on: pressure overload hypertrophy and heart failure; experiment: Transaortic banding (TAB) pressure overload in JP2NT-OE mice; assay type: in vivo, mouse
# Procedure: Animal experiments were performed in accordance with the Guide for the Care and Use of Laboratory Animals (National Institutes of Health publication 85-23, revised 1996) and were approved by the Institutional Animal Care and Use Committee at the University of Iowa. Cardiac specific JP2NT overexpression vector was constructed by subcloning mouse JP2NT cDNA (Guo et al., 2015) into a tet-operated αMHC transgenic vector, as described previously (Guo et al., 2014). The oocyte injection of transgenic vectors was carried out by University of Iowa transgenic core. The injected oocytes were transferred to pseudopregnant recipients. Transgenic offsprings were backcrossed with C57BL/6J mice for >9 generations to generate transgenic mice in a C57BL/6J background. These transgenic mice were crossed with αMHC-tTA (C57 background) (Guo et al., 2014) to generate double transgenic mice (JP2NT-OE) carrying both αMHC-JP2NT and αMHC-tTA. The non-overexpression single transgenic littermates were used as control. PCR was used to determine the genotype of transgenic mice. Nine to 10-wk-old male JP2NT-OE mice and their control littermates were subjected to pressure overload by transaortic banding (TAB) surgery, as described (Guo et al., 2014). Transthoracic echocardiograms were performed with conscious mice in the University of Iowa Cardiology Animal Phenotyping Core Laboratory, using a Vevo 2100 Imager (Visual Sonics), as described previously (Cheng et al., 1993).
# [3] = tested on: MEF2C Response Element (MRE) from the desmin enhancer; experiment: Gel shift assay with MEF2 response element; assay type: binding; details: purified protein
# Text: FIGS. 12A-E. JP2NT represses MEF2-mediated transcription by competing for the MEF2 Response Element (MRE). A) Enrichment of MEF2 binding motifs in ChIP-seq dataset. B) Gel shift assay of JP2NT binding to a desmin promoter-derived DNA sequence containing a WT or mutated MRE in vitro. C) Co-immunoprecipitation of HA-tagged JP2NT binding to MEF2C or Histone H3. D) & E) MEF2 activity assays in 293T cells co-transfected with luciferase under the control of an MRE, MEF2C and WT JP2NT (D) or a mutant lacking the ARR (E, JP2NT^ΔARR). n≥3 independent batches of cells; in each batch of experiments, 3 replicates were performed for each transfection; **p<0.01 vs. Ad-Empty.
# The MEF2 family, master regulators of hypertrophic genes in cardiomyocytes, binds to the A/T enriched consensus sequence (C/TTA(A/T)4TA G/A), which shares the same core sequence with TATA box. Thus, it was hypothesized that JP2NT directly interacts with MEF2 binding sites.
# [4] = after TAB, relative to controls
molecule,measurement,setting,value
B1,promoter activity (firefly luciferase),[1],significantly attenuated
same,restoration of Ca2+ transients,JP2-KD cardiomyocytes,failed to restore
same,cardiac function (ejection fraction),"[2]; 3 weeks after TAB, relative to controls",improved cardiac function
same,pressure overload induced heart failure,[2]; JP2NT OE mice,resistant
same,heart weight/body weight ratio,[2]; [4],lower
same,lung edema (lung weight/body weight ratio),[2]; [4],reduced lung edema
same,cardiac morphology or function at baseline,"[2]; baseline, no TAB",no effect
same,interaction with MEF2C Response Element (MRE),[3],interacts
